The text below walks through data of publication doi:10.1101/538884 (bioRxiv, 2019).

The series concerns the molecule itself. Put plainly: SEC. For orientation: SEC sorts molecules by how far they enter the pores of the column.

B1: HEV^440-691 (hepatitis E virus ORF1 residues 440-691) (domain or fragment, Hepatitis E virus (HEV), UniProt P33424 440-691, looked up)
chain: AGFHLDPRVLVFDESAPCHCRTAIRKAVSKFCCFMKWLGQECTCFLQPAEGVVGDQGHDNEAYEGSDVDPAESAISDISGSYVVPGTALQPLYQALDLPAEIVARAGRLTATVKVSQVDGRIDCETLLGNKTFRTSFVDGAVLETNGPERHNLSFDASQSTMAAGPFSLTYAASAAGLEVRYVAAGLDHRAVFAPGVSPRSAPGEVTAFCSALYRFNREAQRLSLTGNFWFHPEGLLGPFAPFSPGHVWESA
Take B1: the binding result is listed as “binds”.
